This is an account of results in doi:10.1101/2022.02.05.479199.

The target in the series is RPA-DBD-D-Cy3;Rtt105-Cy5 (C13S) C13S (Saccharomyces cerevisiae;Saccharomyces cerevisiae?) (UniProt P22336+P26754+P26755+P40063). In words: FRET titration.
Chain of RPA-DBD-D-Cy3;Rtt105-Cy5 (C13S) C13S (Saccharomyces cerevisiae;Saccharomyces cerevisiae?) (P22336 whole entry, chain 1 of 4): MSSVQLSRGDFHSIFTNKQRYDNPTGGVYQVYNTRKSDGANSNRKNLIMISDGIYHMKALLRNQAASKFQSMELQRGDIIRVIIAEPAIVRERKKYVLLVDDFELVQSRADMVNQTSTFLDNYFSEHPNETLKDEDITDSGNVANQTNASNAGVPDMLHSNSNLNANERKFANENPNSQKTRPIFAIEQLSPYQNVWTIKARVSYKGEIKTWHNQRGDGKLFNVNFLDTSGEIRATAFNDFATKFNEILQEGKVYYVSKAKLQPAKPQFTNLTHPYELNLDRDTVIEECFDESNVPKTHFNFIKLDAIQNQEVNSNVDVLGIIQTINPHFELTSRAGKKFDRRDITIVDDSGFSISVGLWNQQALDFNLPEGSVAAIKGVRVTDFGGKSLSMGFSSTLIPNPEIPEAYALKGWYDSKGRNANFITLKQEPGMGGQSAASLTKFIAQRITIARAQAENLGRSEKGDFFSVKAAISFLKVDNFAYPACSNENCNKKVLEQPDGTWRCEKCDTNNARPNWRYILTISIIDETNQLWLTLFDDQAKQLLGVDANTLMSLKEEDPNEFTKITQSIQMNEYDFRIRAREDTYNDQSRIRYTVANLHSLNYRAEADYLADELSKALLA
Chain of RPA-DBD-D-Cy3;Rtt105-Cy5 (C13S) C13S (Saccharomyces cerevisiae;Saccharomyces cerevisiae?) (P26754 whole entry, chain 2 of 4): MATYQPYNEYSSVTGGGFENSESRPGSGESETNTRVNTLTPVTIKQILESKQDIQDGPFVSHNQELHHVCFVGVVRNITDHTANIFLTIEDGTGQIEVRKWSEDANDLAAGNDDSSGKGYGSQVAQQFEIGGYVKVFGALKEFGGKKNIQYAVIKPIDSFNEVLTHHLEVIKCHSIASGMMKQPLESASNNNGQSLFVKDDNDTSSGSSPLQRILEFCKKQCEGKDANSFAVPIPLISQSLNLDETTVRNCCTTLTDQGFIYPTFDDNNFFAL
Chain of RPA-DBD-D-Cy3;Rtt105-Cy5 (C13S) C13S (Saccharomyces cerevisiae;Saccharomyces cerevisiae?) (P26755 whole entry, chain 3 of 4): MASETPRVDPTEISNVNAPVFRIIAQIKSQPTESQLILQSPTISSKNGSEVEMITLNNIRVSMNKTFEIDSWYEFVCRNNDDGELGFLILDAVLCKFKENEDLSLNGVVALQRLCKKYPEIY
Chain of RPA-DBD-D-Cy3;Rtt105-Cy5 (C13S) C13S (Saccharomyces cerevisiae;Saccharomyces cerevisiae?) (P40063 whole entry C13S, chain 4 of 4): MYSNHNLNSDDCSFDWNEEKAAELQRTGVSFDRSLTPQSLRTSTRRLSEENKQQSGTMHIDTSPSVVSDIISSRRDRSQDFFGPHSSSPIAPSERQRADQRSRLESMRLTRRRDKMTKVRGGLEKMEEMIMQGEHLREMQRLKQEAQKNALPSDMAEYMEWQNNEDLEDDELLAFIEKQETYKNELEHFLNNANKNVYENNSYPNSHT

On to “TTTTTTTTTTTTTTTTTTTTTTTTTTTTTTTTTTT [(dT)35]”, for which the K half was found to be 130 nM.

Sequence “TTTTTTTTTTTTTTTTTTTTTTTTTTTTTTTTTTTTTTTTTTTTTTTTTTTTTTTTTTTTTTTTTTTTTT [(dT)70]” came in with a K half of 42.8 nM.
